Assays:
Assay in all cases: Esterase substrate specificity, fluorogenic SAR library kinetics
Format in all cases: biochemical, Staphylococcus aureus
Conditions in all cases: other: SaGloB, fluorogenic ester substrate; pH 7.5; 37.0 °C
[1] = substrate: C=CCOC(C)C(=O)OCOc1ccc2c(c1)Oc1cc(OCOC(=O)C(C)OCC=C)ccc1C21OC(=O)c2ccccc21
Protocol: (§1) Kinetic measurements were performed according to [White et al., 2018] with minor variation. Lyophilized human and mouse sera were resuspended according to manufacturer instructions in highly pure, filtered water at protein concentrations of 85 mg/mL and 70 mg/mL, respectively. One milliliter of resuspended serum was added to a 24 mL mastermix for a final concentration of 31.25 mM Tris pH 7.5, 312.5 mM NaCl, 1.25 mM MgCl2, 12.5% glycerol, and 3.4 mg/mL or 2.8 mg/mL protein for human and mouse serum, respectively. For purified proteins, 5 mL of a 75 µg/mL stock was added to yield a 20 mL mastermix containing 31.25 mM Tris pH 7.5, 312.5 mM NaCl, 1.25 mM MgCl2, 12.5% glycerol, and 18.75 µg/mL protein. Mastermix was stored on ice when not in use. Twenty microliters of mastermix was transferred to a black, 96-well half area microplate (Corning, CLS3993) and prewarmed at 37°C. Fluorogenic substrates were prepared as 10 mM stock solutions in 100% DMSO and were diluted in water to a starting concentration of 500 µM. Enzyme catalyzed substrate hydrolysis was initiated by addition of 5 µL substrate dilution in technical duplicate to the prewarmed serum or protein solution. Final assay concentrations were as follows: 25 mM Tris pH 7.5, 250 mM NaCl, 1 mM MgCl2, 10% glycerol, and protein at a concentration of 2.72 mg/mL (human serum), 2.24 mg/mL (mouse serum), or 15 µg/mL (FrmB, GloB). The resulting change in fluorescence (λex = 485 nm, λem = 520 nm) was followed for 15 min at 37°C, collecting data every 30 s on a FLUOstar Omega microplate reader (BMG Labtech). Fluorescence measurements were converted to molar concentrations using a fluorescein standard curve (2.5 nmol–0.6 pmol). The initial rates of reaction were measured three independent times with two technical replicates per measurement and fit to a line using GraphPad Prism (GraphPad Software, La Jolla, CA). Initial rates of reaction were plotted versus the concentration of substrate and fit to a standard Michaelis–Menten equation (v = Vmax[S]/(Km + [S])), yielding estimates of Vmax and Km. Values for kcat and kcat/Km were calculated based on amount of enzyme added when purified enzymes were used.

[2] = substrate: CC(C)SCC(=O)OCOc1ccc2c(c1)Oc1cc(OCOC(=O)CSC(C)C)ccc1C21OC(=O)c2ccccc21
Protocol: as §1

[3] = substrate: CCC(OC)C(=O)OCOc1ccc2c(c1)Oc1cc(OCOC(=O)C(CC)OC)ccc1C21OC(=O)c2ccccc21
Protocol: as §1

[4] = substrate: CCCCC(=O)OCOc1ccc2c(c1)Oc1cc(OCOC(=O)CCCC)ccc1C21OC(=O)c2ccccc21
Protocol: as §1

[5] = substrate: CCCOCC(=O)OCOc1ccc2c(c1)Oc1cc(OCOC(=O)COCCC)ccc1C21OC(=O)c2ccccc21
Protocol: as §1

[6] = substrate: CCOC(C)C(=O)OCOc1ccc2c(c1)Oc1cc(OCOC(=O)C(C)OCC)ccc1C21OC(=O)c2ccccc21
Protocol: as §1

[7] = substrate: CCOCC(=O)OCOc1ccc2c(c1)Oc1cc(OCOC(=O)COCC)ccc1C21OC(=O)c2ccccc21
Protocol: as §1

[8] = substrate: CCOCCC(=O)OCOc1ccc2c(c1)Oc1cc(OCOC(=O)CCOCC)ccc1C21OC(=O)c2ccccc21
Protocol: as §1

[9] = substrate: CCSC(C)C(=O)OCOc1ccc2c(c1)Oc1cc(OCOC(=O)C(C)SCC)ccc1C21OC(=O)c2ccccc21
Protocol: as §1

[10] = substrate: COC(C)C(=O)OCOc1ccc2c(c1)Oc1cc(OCOC(=O)C(C)OC)ccc1C21OC(=O)c2ccccc21
Protocol: as §1

[11] = substrate: COCCC(=O)OCOc1ccc2c(c1)Oc1cc(OCOC(=O)CCOC)ccc1C21OC(=O)c2ccccc21
Protocol: as §1

[12] = substrate: CSC(C)C(=O)OCOc1ccc2c(c1)Oc1cc(OCOC(=O)C(C)SC)ccc1C21OC(=O)c2ccccc21
Protocol: as §1

B1: SaGloB (Staphylococcus aureus subsp. aureus str. Newman) (protein)
chain: MRISSLTLGLVDTNTYFIENDKAVILIDPSGESEKIIKKLNQINKPLKAILLTHAHFDHIGAVDDIVDRFDVPVYMHEAEFDFLKDPVKNGADKFKQYGLPIITSKVTPEKLNEGSTEIEGFKFNVLHTPGHSPGSLTYVFDEFAVVGDTLFNNGIGRTDLYKGDYETLVDSIQDKIFELEGDLPLFPGHGPYTTVDDEQLNPFLHG
B1 was tested, and the Km [1] was 36.91 µM, the Vmax [1] was 1.04 pmol*min-1*μg protein-1 and the kcat [1] was 0.156 10-3 s-1. For the same protein, the kcat/Km [1] was 4.21 M⁻¹ s⁻¹, the Km [2] was 65.8 µM and the Vmax [2] was 4.19 pmol*min-1*μg protein-1. For the same protein, the kcat [2] was 0.627 10-3 s-1, the kcat/Km [2] was 9.53 M⁻¹ s⁻¹ and the Km [3] was 55.5 µM. The Vmax [3] was 2.54 pmol*min-1*μg protein-1, the kcat [3] was 0.380 10-3 s-1 and the kcat/Km [3] was 6.84 M⁻¹ s⁻¹. The Km [4] was 18.33 µM, the Vmax [4] was 0.292 pmol*min-1*μg protein-1 and the kcat [4] was 0.0436 10-3 s-1. The kcat/Km [4] was 2.38 M⁻¹ s⁻¹, the Km [5] was 8.41 µM and the Vmax [5] was 4.21 pmol*min-1*μg protein-1. The kcat [5] was 0.630 10-3 s-1, the kcat/Km [5] was 74.8 M⁻¹ s⁻¹ and the Km [6] was 15.5 µM. The Vmax [6] was 1.01 pmol*min-1*μg protein-1, the kcat [6] was 0.151 10-3 s-1 and the kcat/Km [6] was 9.71 M⁻¹ s⁻¹. The Km [7] was 42.0 µM, the Vmax [7] was 46.4 pmol*min-1*μg protein-1 and the kcat [7] was 6.93 10-3 s-1. It also gave a kcat/Km [7] of 165 M⁻¹ s⁻¹, a Km [8] of 21.2 µM and a Vmax [8] of 0.731 pmol*min-1*μg protein-1. The kcat [8] was 0.109 10-3 s-1, the kcat/Km [8] was 5.15 M⁻¹ s⁻¹ and the Km [9] was 79.8 µM. The Vmax [9] was 1.02 pmol*min-1*μg protein-1, the kcat [9] was 0.153 10-3 s-1 and the kcat/Km [9] was 1.92 M⁻¹ s⁻¹. For the same protein, the Km [10] was 20.5 µM, the Vmax [10] was 23.1 pmol*min-1*μg protein-1 and the kcat [10] was 3.45 10-3 s-1. For the same protein, the kcat/Km [10] was 168 M⁻¹ s⁻¹, the Km [11] was 18.0 µM and the Vmax [11] was 1.39 pmol*min-1*μg protein-1. For the same protein, the kcat [11] was 0.208 10-3 s-1, the kcat/Km [11] was 11.5 M⁻¹ s⁻¹ and the Km [12] was 49.5 µM. The Vmax [12] was 0.722 pmol*min-1*μg protein-1, the kcat [12] was 0.108 10-3 s-1 and the kcat/Km [12] was 2.18 M⁻¹ s⁻¹.

Source: article PMC8318587, “Structure-guided microbial targeting of antistaphylococcal prodrugs” (eLife, 2021)
